Each block holds one molecule with its values, some of them ahead of it.
B2: Phospholipase C-γ1 (PLC-γ1), 1–1219 (enzyme, UniProt P19174 1-1219, looked up)
chain: MAGAASPCANGCGPGAPSDAEVLHLCRSLEVGTVMTLFYSKKSQRPERKTFQVKLETRQITWSRGADKIEGAIDIREIKEIRPGKTSRDFDRYQEDPAFRPDQSHCFVILYGMEFRLKTLSLQATSEDEVNMWIKGLTWLMEDTLQAPTPLQIERWLRKQFYSVDRNREDRISAKDLKNMLSQVNYRVPNMRFLRERLTDLEQRSGDITYGQFAQLYRSLMYSAQKTMDLPFLEASTLRAGERPELCRVSLPEFQQFLLDYQGELWAVDRLQVQEFMLSFLRDPLREIEEPYFFLDEFVTFLFSKENSVWNSQLDAVCPDTMNNPLSHYWISSSHNTYLTGDQFSSESSLEAYARCLRMGCRCIELDCWDGPDGMPVIYHGHTLTTKIKFSDVLHTIKEHAFVASEYPVILSIEDHCSIAQQRNMAQYFKKVLGDTLLTKPVEISADGLPSPNQLKRKILIKHKKLAEGSAYEEVPTSMMYSENDISNSIKNGILYLEDPVNHEWYPHYFVLTSSKIYYSEETSSDQGNEDEEEPKEVSSSTELHSNEKWFHGKLGAGRDGRHIAERLLTEYCIETGAPDGSFLVRESETFVGDYTLSFWRNGKVQHCRIHSRQDAGTPKFFLTDNLVFDSLYDLITHYQQVPLRCNEFEMRLSEPVPQTNAHESKEWYHASLTRAQAEHMLMRVPRDGAFLVRKRNEPNSYAISFRAEGKIKHCRVQQEGQTVMLGNSEFDSLVDLISYYEKHPLYRKMKLRYPINEEALEKIGTAEPDYGALYEGRNPGFYVEANPMPTFKCAVKALFDYKAQREDELTFIKSAIIQNVEKQEGGWWRGDYGGKKQLWFPSNYVEEMVNPVALEPEREHLDENSPLGDLLRGVLDVPACQIAIRPEGKNNRLFVFSISMASVAHWSLDVAADSQEELQDWVKKIREVAQTADARLTEGKIMERRKKIALELSELVVYCRPVPFDEEKIGTERACYRDMSSFPETKAEKYVNKAKGKKFLQYNRLQLSRIYPKGQRLDSSNYDPLPMWICGSQLVALNFQTPDKPMQMNQALFMTGRHCGYVLQPSTMRDEAFDPFDKSSLRGLEPCAISIEVLGARHLPKNGRGIVCPFVEIEVAGAEYDSTKQKTEFVVDNGLNPVWPAKPFHFQISNPEFAFLRFVVYEEDMFSDQNFLAQATFPVKGLKTGYRAVPLKNNYSEDLELASLLIKIDIFPAKENGD

Columns and labels:
[1] = molecular target: LAT 122-140 (Homo sapiens) (UniProt O43561); experiment: ITC; conditions: cited from earlier work
[2] = molecular target: SLP-76 157-420 (Homo sapiens) (UniProt Q13094); experiment: ITC; conditions: cited from earlier work
SLP-76 157-420 (Homo sapiens), sequence (Q13094 157-420): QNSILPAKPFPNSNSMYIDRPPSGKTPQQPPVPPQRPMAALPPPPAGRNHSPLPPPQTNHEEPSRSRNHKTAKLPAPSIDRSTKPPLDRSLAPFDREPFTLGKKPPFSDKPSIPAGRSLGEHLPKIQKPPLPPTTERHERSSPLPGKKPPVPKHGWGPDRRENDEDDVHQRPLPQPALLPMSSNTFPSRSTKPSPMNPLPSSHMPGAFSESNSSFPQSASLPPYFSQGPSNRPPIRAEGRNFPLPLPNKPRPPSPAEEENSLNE

[3] = molecular target: LAT 125-178 (Homo sapiens) (UniProt O43561); experiment: ITC; conditions: cited from earlier work
LAT 125-178 (Homo sapiens), sequence (O43561 125-178): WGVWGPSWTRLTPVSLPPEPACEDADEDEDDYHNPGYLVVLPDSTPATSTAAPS

SLP-76 (Homo sapiens) = SLP-76 (Homo sapiens) (UniProt Q13094); experiment: ITC; conditions: cited from earlier work
SLP-76 (Homo sapiens), sequence (Q13094 whole entry): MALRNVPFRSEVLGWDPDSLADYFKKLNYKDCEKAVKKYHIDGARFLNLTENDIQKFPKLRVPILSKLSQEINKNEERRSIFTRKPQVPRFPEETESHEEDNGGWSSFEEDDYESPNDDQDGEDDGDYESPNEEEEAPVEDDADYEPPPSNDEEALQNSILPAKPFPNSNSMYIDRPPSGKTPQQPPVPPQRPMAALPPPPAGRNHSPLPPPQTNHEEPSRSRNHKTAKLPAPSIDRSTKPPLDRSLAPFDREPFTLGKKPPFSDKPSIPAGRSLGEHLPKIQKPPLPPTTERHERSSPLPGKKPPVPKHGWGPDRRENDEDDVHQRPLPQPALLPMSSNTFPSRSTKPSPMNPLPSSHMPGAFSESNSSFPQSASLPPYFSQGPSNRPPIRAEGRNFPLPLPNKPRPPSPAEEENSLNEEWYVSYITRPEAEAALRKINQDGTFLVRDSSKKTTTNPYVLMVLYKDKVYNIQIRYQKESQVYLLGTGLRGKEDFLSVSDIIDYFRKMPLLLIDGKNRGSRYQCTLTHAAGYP

[4] = molecular target: LAT 161-180 (Homo sapiens) (UniProt O43561); experiment: ITC; conditions: cited from earlier work
[5] = molecular target: SLP-76 159-533 (Homo sapiens) (UniProt Q13094); experiment: ITC; conditions: cited from earlier work
SLP-76 159-533 (Homo sapiens), sequence (Q13094 159-533): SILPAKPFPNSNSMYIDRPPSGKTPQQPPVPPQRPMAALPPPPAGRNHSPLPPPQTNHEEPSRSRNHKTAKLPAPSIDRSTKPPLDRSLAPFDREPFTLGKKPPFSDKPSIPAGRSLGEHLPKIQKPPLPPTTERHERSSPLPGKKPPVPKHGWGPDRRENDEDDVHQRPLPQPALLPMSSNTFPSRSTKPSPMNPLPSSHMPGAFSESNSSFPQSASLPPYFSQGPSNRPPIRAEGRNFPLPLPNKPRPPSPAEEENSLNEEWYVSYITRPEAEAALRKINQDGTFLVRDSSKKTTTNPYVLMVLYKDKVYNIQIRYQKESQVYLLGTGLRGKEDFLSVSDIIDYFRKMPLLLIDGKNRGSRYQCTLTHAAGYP

[6] = molecular target: B2; experiment: cell-based or functional assay
[7] = molecular target: B2; experiment: ITC; VP-ITC or PEAQ-ITC; 20 mM Hepes pH 7.4, 100 mM NaCl, 0.1 mM DTT, 5 °C; 4 µM in the cell, 40 µM in the syringe; fit to a single binding site with 1:1 stoichiometry; conditions: both partners purified
[8] = molecular target: T1, phosphorylated LAT (48–233aa, pY132, pY171) (UniProt O43561-2 48-233, phosphotyrosine at 132 and 171 (in vitro phosphorylation, validated by mass spectrometry)); experiment: cell-based or functional assay
T1 sequence (looked up): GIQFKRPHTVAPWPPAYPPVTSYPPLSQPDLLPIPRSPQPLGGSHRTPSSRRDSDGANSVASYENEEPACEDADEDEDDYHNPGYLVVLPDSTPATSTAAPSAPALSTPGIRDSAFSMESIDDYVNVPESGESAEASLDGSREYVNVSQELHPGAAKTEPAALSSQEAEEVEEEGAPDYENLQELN

PLC-γ1 (1-1219) = molecular target: T2, PLC-γ1 (1-1219) (UniProt P19174 1-1219); experiment: ITC; PEAQ-ITC, 5 °C, 20 mM Hepes pH 7.4, 100 mM NaCl, 0.1 mM DTT; 4 µM in the cell and 40 µM in the syringe, 19 injections of 2 µL; single binding site model with 1:1 stoichiometry; conditions: both partners purified
T2 construct: the text calls it full length PLC-γ1; this is the only PLC-γ1 that the methods describe; also called Phospholipase C-γ1; PLC-g1; source: Sf9, purified (HaloLink Resin, TEV cleavage, SEC)
T2 sequence (looked up): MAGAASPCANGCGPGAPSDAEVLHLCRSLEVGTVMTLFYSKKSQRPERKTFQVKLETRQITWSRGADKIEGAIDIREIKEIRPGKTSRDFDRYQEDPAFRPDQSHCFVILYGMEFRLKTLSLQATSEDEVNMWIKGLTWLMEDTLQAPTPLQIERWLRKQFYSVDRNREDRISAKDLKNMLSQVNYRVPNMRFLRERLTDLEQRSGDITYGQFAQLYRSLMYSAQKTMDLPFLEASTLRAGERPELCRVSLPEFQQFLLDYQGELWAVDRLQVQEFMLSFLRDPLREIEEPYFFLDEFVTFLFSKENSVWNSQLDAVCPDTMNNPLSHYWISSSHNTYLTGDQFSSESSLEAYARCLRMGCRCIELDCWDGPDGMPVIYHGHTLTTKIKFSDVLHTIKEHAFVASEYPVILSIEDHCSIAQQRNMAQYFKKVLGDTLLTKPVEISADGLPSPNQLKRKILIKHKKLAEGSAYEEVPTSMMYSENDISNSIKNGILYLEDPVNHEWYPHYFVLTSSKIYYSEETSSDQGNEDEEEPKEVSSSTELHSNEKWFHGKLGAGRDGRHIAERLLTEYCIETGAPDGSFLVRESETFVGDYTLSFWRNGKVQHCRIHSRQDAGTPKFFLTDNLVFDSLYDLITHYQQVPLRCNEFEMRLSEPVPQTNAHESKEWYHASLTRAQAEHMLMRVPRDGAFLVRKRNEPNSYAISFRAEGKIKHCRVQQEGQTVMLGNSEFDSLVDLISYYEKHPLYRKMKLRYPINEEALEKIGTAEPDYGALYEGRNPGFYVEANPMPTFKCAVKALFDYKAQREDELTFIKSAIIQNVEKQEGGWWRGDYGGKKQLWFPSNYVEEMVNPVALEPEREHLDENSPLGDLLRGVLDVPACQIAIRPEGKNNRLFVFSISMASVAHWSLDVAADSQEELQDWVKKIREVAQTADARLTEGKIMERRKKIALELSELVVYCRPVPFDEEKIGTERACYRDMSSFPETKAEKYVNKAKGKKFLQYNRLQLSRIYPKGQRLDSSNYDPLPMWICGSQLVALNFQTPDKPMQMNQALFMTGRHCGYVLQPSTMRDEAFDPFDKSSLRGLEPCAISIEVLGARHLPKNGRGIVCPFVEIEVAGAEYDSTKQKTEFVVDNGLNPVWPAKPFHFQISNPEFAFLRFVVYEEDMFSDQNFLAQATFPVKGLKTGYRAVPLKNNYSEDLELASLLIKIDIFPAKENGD

Molecule: PLC-γ1 550-846 (from UniProt P19174)
Kd [1]: 62 nM | Kd [2]: 3340 nM

Molecule: PLC-γ1 1-1219 (from UniProt P19174)
Kd [3]: 84 nM

Molecule: PLC-γ1 (from UniProt P19174)
Kd (SLP-76 (Homo sapiens)): 3340 nM

Molecule: Gads 1-322 (from UniProt O75791)
Kd [3]: 213 nM | Kd [4]: 164 nM | Kd [2]: 19 nM | Kd [5]: 3.6 nM

PLC-γ1 activity on PIP2-bearing liposomes (IP3): LAT/Gads/SLP-76^WT/PLC-γ1 tetramer against PLC-γ1 with phospho-LAT alone [6]: 1.7 fold | Kd [7]: 2320 nM | dH [7]: -3.8 kcal/mol
B1: SLP-76^WT polypeptide (aa 103–258, Y113F, Y173F) (domain or fragment, UniProt Q13094 103-258, looked up)
chain: GGWSSFEEDDFESPNDDQDGEDDGDYESPNEEEEAPVEDDADYEPPPSNDEEALQNSILPAKPFPNSNSMFIDRPPSGKTPQQPPVPPQRPMAALPPPPAGRNHSPLPPPQTNHEEPSRSRNHKTAKLPAPSIDRSTKPPLDRSLAPFDREPFTLG
notes: source: E. coli Rosetta 2(DE3)pLysS, purified (Glutathione Resin, TEV cleavage, HisTrap, SEC); not shown: His6, N-terminal, cleaved; GST, N-terminal, cleaved

Molecule: B2
PIP2 hydrolysis (IP3) by PLC-γ1 on liposomes containing phospho-LAT alone, compared with liposomes incubated with PLC-γ1 alone [8]: 2.1 fold

Kd [7]: 3990 nM | dH [7]: -3.3 kcal/mol
B3: SLP-76 PRR peptide (aa 185–200), wild type (peptide, UniProt Q13094 185-200, looked up)
peptide: QPPVPPQRPMAALPPP
notes: also called SLP-76 185–200 (WT); SLP-76 PRR_(185–200) peptide

Kd (PLC-γ1 (1-1219)): 2360 nM
B4: SLP-76 PRR (aa 185-200) peptide, wild type (peptide, UniProt Q13094 185-200, looked up)
peptide: QPPVPPQRPMAALPPP
notes: SLP-76 proline-rich region, residues 185-200; The peptides are called 'a set of short peptides'; also called SLP-76^WT; SLP-76 PRR_(185-200)

Reference: publication PMC13522589, “Weak SLP-76/PLC-γ1 interaction fine-tunes T cell receptor signal strength to optimize T cell responsiveness” (Nature Communications, 2026)
